Results: patent US20240132622A1 (Bristol-Myers Squibb, published 2024)

Columns and labels:
[1] = target: T1, recombinant human PAD4 (human, UniProt Q9UM07 1-663); test: cell-based or functional assay
[2] = target: extracellular matrix (ECM) proteins; test: ECM plate ELISA (Matrigel), 1 uM antibody, A450 over wells without sample
[3] = target: T1, recombinant human PAD4; test: SPR 37 C, captured antibody, PAD4 analyte, 1 mM CaCl2
Method: Their binding to human PAD4 was measured by Surface Plasmon Resonance (SPR). SPR measurements were performed with a Biacore® 8K, 8K+, or T200 instrument (Cytiva). The association rate constants, kₒₙ, dissociation rate constants, koff, and equilibrium dissociation constants, KD, of the antibodies with PAD4 were determined from these SPR measurements.
(§1) For SPR measurements, either an anti-human capture surface or Protein A surface (Cytiva catalog #29127555) was used. Anti-human capture surface was prepared by immobilizing anti-human capture antibody (Cytiva catalog #29234600) onto flow cells of a CM5 or CM4 biosensor following the manufacturer's amine coupling protocol (Cytiva catalog #BR-1006-33). SPR experiments were conducted at 37° C. using HBS-P (150 mM NaCl, 10 mM HEPES, pH 7.6, 0.05% Tween-20) (TEKNOVA catalog #H8032) with additional 150 mM NaCl and 1 mM or 2 mM CaCl₂) (see Table 2) or 2 mM EDTA (see Table 3) as running buffer. Antibodies were diluted to 1.5 μg/mL in the running buffer, and were captured across active biosensor flow cells at 10 μL/min for 15 to 30 seconds. […] The association and dissociation of the antibodies with PAD4 were measured. One 30 second injection followed by one 15 second injection of 10 mM glycine pH 1.5 was used to regenerate the Protein A capture surface between assay cycles. For anti-human capture surface, two 30 second injections of 3 M MgCl₂ was used for regeneration. SPR measurements for mAb20 and mAb 13 SPR were done in the presence of 2 mM CaCl₂). The remaining antibodies were tested in the presence of 1 mM CaCl₂).
(§2) Rate constants kₒₙ and koff were derived from reference flow cell- and 0 nM blank-subtracted sensorgrams, and were fit to a 1:1 binding model in Biacore® Insight Evaluation software version 3.0.12.15655. Deviations from 1:1 binding model were observed, which may be caused by increased dimerization of PAD4 at higher concentrations. The equilibrium dissociation constant, KD, was calculated as the ratio of rate constants koff/kₒₙ for each PAD4 antibody.

[4] = target: T1, recombinant human PAD4; test: SPR 37 C, captured antibody, PAD4 analyte, 2 mM EDTA
Method: as §1
as §2, with “antibody. For those antibodies that were tested in multiple SPR experiments, the average value and standard deviation from two or three separate experiments are listed in Tables 2 and 3.” for “antibody.”

T1 sequence (Q9UM07 whole entry): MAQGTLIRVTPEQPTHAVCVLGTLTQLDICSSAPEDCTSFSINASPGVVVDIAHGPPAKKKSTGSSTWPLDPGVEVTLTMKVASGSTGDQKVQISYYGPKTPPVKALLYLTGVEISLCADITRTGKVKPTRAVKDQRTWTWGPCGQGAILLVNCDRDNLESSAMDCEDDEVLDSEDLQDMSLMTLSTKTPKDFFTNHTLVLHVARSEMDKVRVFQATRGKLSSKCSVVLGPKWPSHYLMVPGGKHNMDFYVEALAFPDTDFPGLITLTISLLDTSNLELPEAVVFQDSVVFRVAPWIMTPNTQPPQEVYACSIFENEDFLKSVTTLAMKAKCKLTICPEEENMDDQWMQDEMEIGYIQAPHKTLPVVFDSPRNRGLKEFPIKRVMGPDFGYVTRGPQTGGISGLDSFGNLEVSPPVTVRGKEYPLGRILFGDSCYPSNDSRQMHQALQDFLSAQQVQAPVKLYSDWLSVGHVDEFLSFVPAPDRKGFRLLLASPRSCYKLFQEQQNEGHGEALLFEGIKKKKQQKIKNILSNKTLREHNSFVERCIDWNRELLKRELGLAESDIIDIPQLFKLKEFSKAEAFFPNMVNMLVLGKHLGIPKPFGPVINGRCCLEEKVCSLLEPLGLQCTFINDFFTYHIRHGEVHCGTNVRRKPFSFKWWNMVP

IC50 (average), PAD4 citrullination of peptide …, RapidFire MS [1]	ECM Score (1 µM) [2]	Kd [3]	koff [3]	kon [3]	Kd [4]	koff [4]	kon [4]	Binder
64.7 nM	5	0.8 nM	0.00026 s⁻¹	350000 M⁻¹ s⁻¹	0.5 nM	0.00021 s⁻¹	380000 M⁻¹ s⁻¹	hz20-7 (antibody, IgG1, V domains shown, also called clone 20-based hz20-7 antibody) VH: QVQLVQSGAEVKKPGASVKVSCKASGYTFTNYGISWVRQAPGQGLEWMGEIYPRSGNTYHNEKFKDRVTMTTDTSTSTAYMELRSLRSDDTAVYYCARSMITTRYWYFDVWGKGTTVTVSS VL: DIVMTQSPDSLAVSLGERATINCRASESVDTYGNSFMHWYQQKPGQPPKLLIYLASNLESGVPDRFSGSGSGTDFTLTISSLQAEDVAVYYCQQNNEDPLTFGQGTKLEIK
118 nM	1	1.7 nM	0.00046 s⁻¹	270000 M⁻¹ s⁻¹	3 nM	0.00073 s⁻¹	240000 M⁻¹ s⁻¹	hz20-4 (antibody, V domains shown, light constant region not tied to this antibody) VH: QVQLVQSGAEVKKPGASVKVSCKASGYTFTNYGISWVRQAPGQGLEWMGEIYPRSGNTYHNEKFKDRVTMTADTSTSTVYMELSSLRSEDTAVYYCARSMITTRYWYFDVWGKGTTVTVSS VL: DIVMTQSPDSLAVSLGERATINCRASESVDTYGNSFMHWYQQKPGQPPKLLIYLASNLESGVPDRFSGSGSGTDFTLTISSLQAEDVAVYYCQQNNEDPLTFGAGTKLELK
107 nM	19	0.3 nM	0.00015 s⁻¹	490000 M⁻¹ s⁻¹	0.4 nM	0.00018 s⁻¹	480000 M⁻¹ s⁻¹	hz20-9 (antibody, V domains shown, light constant region not tied to this antibody) VH: QVQLVQSGAEVKKPGASVKVSCKASGYTFTNYGISWVRQAPGQGLEWMGEIYPRSGNTYHNEKFKDRVTMTTDKSTSTAYMELRSLRSDDTAVYYCARSMITTRYWYFDVWGKGTTVTVSS VL: DIVMTQSPDSLAVSLGERATINCRASESVDTYGNSFMHWYQQKPGQPPKLLIYLASNLESGVPDRFSGSGSGTDFTLTISSLQAEDVAVYYCQQNNEDPLTFGQGTKLEIK
59 nM	3	0.6 nM	0.00019 s⁻¹	320000 M⁻¹ s⁻¹	0.6 nM	0.00021 s⁻¹	380000 M⁻¹ s⁻¹	hz20-12 (antibody, V domains shown, light constant region not tied to this antibody) VH: QVQLVQSGAEVAKPGASVKVSCKASGYTFTNYGISWVRQRPGQGLEWMGEIYPRSGNTYHNEKFKDRVTMTTDTSTSTAYMELRSLRSEDTAVYYCARSMITTRYWYFDVWGKGTTVTVSS VL: DIVMTQSPDSLAVSLGERATINCRASESVDTYGNSFMHWYQQKPGQPPKLLIYLASNLESGVPDRFSGSGSGTDFTLTIDSLQAEDVAVYYCQQNNEDPLTFGQGTKLEIK
71.9 nM	4	0.8 nM	0.00025 s⁻¹	320000 M⁻¹ s⁻¹	0.6 nM	0.00022 s⁻¹	360000 M⁻¹ s⁻¹	hz20-8 (antibody, V domains shown, light constant region not tied to this antibody) VH: QVQLVQSGAEVKKPGASVKVSCKASGYTFTNYGISWVRQAPGQGLEWMGEIYPRSGNTYHNEKFKDRVTMTTDTSTSTAYMELRSLRSDDTAVYYCARSMITTRYWYFDVWGKGTTVTVSS VL: DIVMTQSPDSLAVSLGERATINCRASESVDTYGNSFMHWYQQKPGQPPKLLIYLASNLESGVPDRFSGSGSGTDFTLTIDSLQAEDVAVYYCQQNNEDPLTFGQGTKLEIK
65.7 nM	4	0.9 nM	0.00025 s⁻¹	300000 M⁻¹ s⁻¹	0.6 nM	0.00022 s⁻¹	390000 M⁻¹ s⁻¹	hz20-11 (antibody, V domains shown, light constant region not tied to this antibody) VH: QVQLVQSGAEVAKPGASVKVSCKASGYTFTNYGISWVRQRPGQGLEWMGEIYPRSGNTYHNEKFKDRVTMTTDTSTSTAYMELRSLRSEDTAVYYCARSMITTRYWYFDVWGKGTTVTVSS VL: DIVMTQSPDSLAVSLGERATINCRASESVDTYGNSFMHWYQQKPGQPPKLLIYLASNLESGVPDRFSGSGSGTDFTLTISSLQAEDVAVYYCQQNNEDPLTFGQGTKLEIK
56.5 nM	3	1.9 nM	0.00045 s⁻¹	250000 M⁻¹ s⁻¹	1.7 nM	0.0004 s⁻¹	240000 M⁻¹ s⁻¹	hz20-5 (antibody, V domains shown, light constant region not tied to this antibody) VH: QVQLVQSGAEVKKPGASVKVSCKASGYTFTNYGISWVRQRPGQGLEWIGEIYPRSGNTYHNEKFKDRVTMTADTSTSTVYMELSSLRSEDTAVYYCARSMITTRYWYFDVWGKGTTVTVSS VL: DIVMTQSPDSLAVSLGERATINCRASESVDTYGNSFMHWYQQKPGQPPKLLIYLASNLESGVPDRFSGSGSGTDFTLTISSLQAEDVAVYYCQQNNEDPLTFGAGTKLELK
57.4 nM	18	0.3 nM	0.00017 s⁻¹	640000 M⁻¹ s⁻¹	0.4 nM	0.00018 s⁻¹	480000 M⁻¹ s⁻¹	hz20-10 (antibody, V domains shown, light constant region not tied to this antibody) VH: QVQLVQSGAEVKKPGASVKVSCKASGYTFTNYGISWVRQAPGQGLEWMGEIYPRSGNTYHNEKFKDRVTMTTDKSTSTAYMELRSLRSDDTAVYYCARSMITTRYWYFDVWGKGTTVTVSS VL: DIVMTQSPDSLAVSLGERATINCRASESVDTYGNSFMHWYQQKPGQPPKLLIYLASNLESGVPDRFSGSGSGTDFTLTIDSLQAEDVAVYYCQQNNEDPLTFGQGTKLEIK
42.4 nM	1	0.1 nM	0.0002 s⁻¹	3.1e+06 M⁻¹ s⁻¹	–	–	–	hz13-12 (antibody, IgG1, V domains shown, also called clone 13-based hz13-12 antibody) VH: EVQLVQSGAEVKKPGATVKISCTSSDFNIKDHFIHWVQQAPGKGLEWMGRIDPEDDETKYAPKFQDRVTITADTSTDTAYMELSSLRSEDTAVYYCAGYGNYEGAMDYWGQGTTVTVSS VL: DVVMTQSPLSLPVTLGQPASISCRASENVNNYGIGFMNWFQQRPGQSPRLLIYAASRRGSGVPDRFSGSGSGTDFTLKISRVEEEDVGVYYCQQSKEVPYTFGGGTKVEIK
–	–	0.1 nM	0.0003 s⁻¹	2.7e+06 M⁻¹ s⁻¹	–	–	–	hz13-12 D31E (antibody, human IgG1, kappa, V domains shown, IgG1.3f; also called hz3-12 D31E) VH: EVQLVQSGAEVKKPGATVKISCTSSDFNIKEHFIHWVQQAPGKGLEWMGRIDPEDDETKYAPKFQDRVTITADTSTDTAYMELSSLRSEDTAVYYCAGYGNYEGAMDYWGQGTTVTVSS VL: DVVMTQSPLSLPVTLGQPASISCRASENVNNYGIGFMNWFQQRPGQSPRLLIYAASRRGSGVPDRFSGSGSGTDFTLKISRVEEEDVGVYYCQQSKEVPYTFGGGTKVEIKR
88.7 nM	1	0.1 nM	0.00015 s⁻¹	1.9e+06 M⁻¹ s⁻¹	–	–	–	hz13-11 (antibody, V domains shown, light constant region not tied to this antibody) VH: EVQLVQSGAEVKKPGATVKISCTSSDFNIKDHFIHWVQQAPGKGLEWMGRIDPEDDETKYAPKFQDRVTITADTSTDTAYMELSSLRSEDTAVYYCAGYGNYEGAMDYWGQGTTVTVSS VL: DVVMTQSPLSLPVTLGQPASISCRASENVNNYGIGFMNWFQQRPGQSPRRLIYAASRRGSGVPDRFSGSGSGTDFTLKISRVEAEDVGVYYCQQSKEVPYTFGGGTKVEIK
55.8 nM	1	0.1 nM	0.00017 s⁻¹	2.2e+06 M⁻¹ s⁻¹	–	–	–	hz13-10 (antibody, V domains shown, light constant region not tied to this antibody) VH: EVQLVQSGAEVKKPGATVKISCKVSDFNIKDHFIHWVQQAPGKGLEWMGRIDPEDDETKYAPKFQDRVTITADTSTDTAYMELSSLRSEDTAVYYCAGYGNYEGAMDYWGQGTTVTVSS VL: DVVMTQSPLSLPVTLGQPASISCRASENVNNYGIGFMNWFQQRPGQSPRLLIYAASRRGSGVPDRFSGSGSGTDFTLKISRVEEEDVGVYYCQQSKEVPYTFGGGTKVEIK
